Reference: the DeepSol protein solubility set

Test: soluble on expression in E. coli; label from the status in PepcDB or PDB records

For “MSEAQGQGKQSLVEMLKAMVQARASDIHLQAGAPPTVRIDGKLRPFGNRPLTPKEVEAIARALLTPEQLEELEYRKEMDFAYTIPGVARFRCNLLRQRGSFGLVMRVVSEVIPSFEALGLPREVMESLAAKERGLILVTGPTGSGKSTTLAALIDHINLHYAKNIITIEDPIEFLHKHKKSLVVQREVGLDTDSFYTGLKYALRQDPDVIMVGEMRDRETVEAALMAAQTGHLVLSTLHTLDAWRTINRIIDFFPLHEHRQVRVLLAESLLGILSQRLLPKADGQGRVLALEILIATPYVRELLKDEEKMPQIKEAMMEGSLYGMRTFDQHLVELYTEGLISLEDALSAATSPHEFRLLLTKATGQTY”, which “soluble on expression in E. coli” value is on record?
Its value is “soluble”.

Which “soluble on expression in E. coli” value does the source give for “MSEEKIYDVIIIGAGPAGMTAAVYTSRANLSTLMLERGIPGGQMANTEDVENYPGYESILGPDLSNKMFEHAKKFGAEYAYGDVKEVIDGKEYKTIIAGKKEYKARAIIVASGAEYKKIGVPGETELGGRGVSYCAVCDGAFFKGKELVVIGGGDSAVEEGVFLTRFASKVTIVHRRDTLRAQKILQDRAFQNEKVDFIWNHTIKEINEANGKVGSVTLVDVNSGEEKEVKTDGVFVYIGMLPLSKPFVELGITNENGYLETNERMETKVPGIFAAGDVREKMLRQIVTATGDGSIAAQSAQHYVEELLEELKTVSEK” here?
The value was “not soluble”.

Which “soluble on expression in E. coli” value does the source give for “MSEETIEKFEDNVEHQNQDQPVPEGMSKKQLRRQKYKVKWEEKKLVKRAAERIRKKEKRAALKESGDLSKLRKRKDFRTMAQSNSKQRIALDMSFDDLMIEKDQKRTVQQIGWCYTANRHSPDPFQFHVVGFDGPSRKIYDGNEHNLNQDIHLHQEKLENLFKPEEIVYLTSESENVLSDLDDTKVYVIGGIVDHNSQKGLCYRIAQEKGFGHAKLPLDEHLLMKSRRVLTINQVYEILVHYSVHKNWKDALLSIIPERKNAQLKEEVVEEKPESLEEIGKLDTESTDTATGSPKIN” here?
Its value is “soluble”.

Which “soluble on expression in E. coli” value does the source give for “MSEFLNENPDILEENQLPTRKEDSTKDLLLGGFSNEATLERRSLLLKIDHSLKSQVLQDIEVLDKLLSIRIPPELTSDEDSLPAESEDESVAGGGKEEEEPDLIDAQEIYDLIAHISDPEHPLSLGQLSVVNLEDIDVHDSGNQNEMAEVVIKITPTITHCSLATLIGLGIRVRLERSLPPRFRITILLKKGTHDSENQVNKQLNDKERVAAACENEQLLGVVSKMLVTCK” here?
Its value is “soluble”.

For “MSEFWKARNWQRKFLVTGRRCFHPMELFSEIKNRYFQLMFRIINECAEGKSKSEVLKIIDEGEFGQKVIGKNQKSFSDLVLNRCAPDENLNLLIEKDGMYYPSIMNSDESGNMAGNAAKKITRPPLPVRFSQIEKAWLKALLDKEEARMILSRETFDKLQKELAGIDTPIKDEYFEFTNKIKLPEIANQKAYEENFRLLLNAIIQEKPIRYNNIDKKGNMYNDRLALPVSIEYSMRDGRFRVSMYLLDENRPVMANVFTLSDIRIVDEDVGFDRETAKRLLLEQKYSEEPIILEVTDEKAAMERCFMCFSGMERTARSLGNNKYEIKLNYYLFEEENLIRNIISLGPYVKVISPQRIVDEVVARVKKAISLYNI”, which “soluble on expression in E. coli” value is on record?
The value was “not soluble”.

Which “soluble on expression in E. coli” value does the source give for “MSEISQLTPQPLWQFFDKICSIPHPSKHEEALAQYIIEWATTEGLDVRRDPTGNVFIKKPATPGMEDRKGVVLQAHIDMVPQKNEDTEHDFTKDPIQPYIDGEWVTAKGTTLGADNGMGMASCLAVLASKELKHGPLEVLLTIDEEAGMTGAFGLEAGWLEGDILLNTDSEQEGEVYMGCAGGADGAIKLDIEREALPSGYITRQITLKGLKGGHSGCDIHTGRGNANKLLGRFLAGHAQELDLRLVEFRGGSLRNAIPREAFATIAVPAENEAKLAELFTFYTNLLKDELGKVETDIVSFNETASAEQVLTKITQSRFIATLNACPNGVIRMSDDIEGVVETSLNVGVITTDENSITILCLIRSLMDSGRSMVEGMLSSVAELAGAQVTFSGTYPGWKPDADSEIMHVFRDVYEGIYGNKPNIMVIHAGLECGLFKKPYPEMDMISFGPTIKFPHSPDEKVKIDTVALYWEQMVAILENIPKKLEHHHHHH” here?
Its value is “soluble”.

With “MSEKLQKVLARAGHGSRRELEALIRAGRVSVNGKVAVLGERLEDDNAVVRIDGHVVSVKAQEEVICRVLAYYKPEGELCTRHDPEGRRTVFDRLPKIRGSRWISVGRLDANTSGLLLFTTDGELANRLMHPSRQVEREYLVRVFGDVTEEKVRNLVRGVQLEDGMARFEDVMYAGGEGINHTFYVVINEGRNREVRRLWESQGTTVSRLKRVRYGDIFLDKKLPRGGWMELDLKQVNYLRELVELRPEKETVLNMAPDAATRKRERTRSQKIRRAVRRHEERISATPGRSGKAPARRKPGGESSTRNKVANQQQSSRKPRG” as the sequence, how does the “soluble on expression in E. coli” value read?
The value was “not soluble”.

Which “soluble on expression in E. coli” value does the source give for “MSELNLSPDKLTVLLMGGSFGAGNIKETLDELLDTDRDFQILVITGKNESLKEKIEKKLMSRYHDKNVCVLGYTDKMNDILASIDVLVSKPGGLTTTEALLKDVPMIVPYYIPGQEEENLDFLSNCGAALRTTKKYNLSILLKVLIDDPSRLEMLKRNIKSIRKSNSAQNIANLILNIISGLEHHHHHH” here?
The value was “not soluble”.

Which “soluble on expression in E. coli” value does the source give for “MSELSGKGCEIIVPFEERLPVRDIEKSIIKKYRKNLWSKFMKAIRDYKLVEEGDKIAVAISGGKDSILMAKMFQELKKHGQVNFDVEFIAMDPGYHANIRQLLIDNCEYLNIPIHLFDSRIFEIADEIAKDYPCYMCARMRRGALYSKAEELGCNKLALGHHYDDVIETTMLNLLCAGNFKTMLPKLNSTNFEGIKIIRPLYYIREEHIIRFIQNSGIWPLNCAC” here?
Its value is “not soluble”.

For “MSELVEMEVHGITLDPTTQMPIVVLKGKEDENLILPIWIGAFEANGIAMKLQGVEPPRPMTYELLKNIITEMGGNVEKVVINDLKDSTYYAEIYINQGNNTLVIDSRPSDAINLALRFGAPIYVAEHVLEQSKLPEPEEDEEKKKLREWLENIKPEDFEIGGEKSLEHHHHHH”, which “soluble on expression in E. coli” value is on record?
Its value is “soluble”.

Which “soluble on expression in E. coli” value does the source give for “MSEPADLIGEIDALGIKLQEARASITRRFIGQERVVDLTLTALLCGGHALLIGLPGLGKTRLVETLSTVMGLHGNRIQFTPDLMPADILGSEVLDTAEDGSRRFRFIPGPIFCQLLMADEINRASPRTQSALLQAMQEKTVTVAGENRPLGTPFHVLATQNPIEQEGTYPLPEAQLDRFLVQIDVDYPDRATEREILLATTGVEEAEAHQVMSQADLLGAQVLLRRMPVGESVVEMILDLVRAFRPDEPGVSDRVRDTVAWGPGPRAAQALMLTVRARALLQGRLAPSPEDVLDMARPVLSHRMALNFAARARGDTLAGLIDETAASLTRTEAAALEHHHHHH” here?
Its value is “not soluble”.

For “MSEPLDLNQLAQKIKQWGLELGFQQVGITDTDLSESEPKLQAWLDKQYHGEMDWMARHGMLRARPHELLPGTLRVISVRMNYLPANAAFASTLKNPKLGYVSRYALGRDYHKLLRNRLKKLGEMIQQHCVSLNFRPFVDSAPILERPLAEKAGLGWTGKHSLILNREAGSFFFLGELLVDIPLPVDQPVEEGCGKCVACMTICPTGAIVEPYTVDARRCISYLTIELEGAIPEELRPLMGNRIYGCDDCQLICPWNRYSQLTTEEDFSPRKPLHAPELIELFAWSEEKFLKVTEGSAIRRIGHLRWLRNIAVALGNAPWDETILTALESRKGEHPLLDEHIAWAIAQQIERRNACIVEVQLPKKQRLVRVIEKGLPRDA”, which “soluble on expression in E. coli” value is on record?
Its value is “soluble”.

For “MSEQQVQELEKKWYALQVEPGKENEAKENLLKVLELEGLKDLVDEVIVPAEEKVVIRAQGKEKYRLSLKGNARDISVLGKKGVTTFRIENGEVKVVESVEGDTCVNAPPISKPGQKITCKENKTEAKIVLDNKIFPGYILIKAHMNDKLLMAIEKTPHVFRPVMVGGKPVPLKEEEVQNILNQIKRGVKPSKVEFEKGDQVRVIEGPFMNFTGTVEEVHPEKRKLTVMISIFGRMTPVELDFDQVEKI”, which “soluble on expression in E. coli” value is on record?
The value was “soluble”.

With “MSEQYKQPNTPEPYWRQSTPLPDFKPLQNDLLVDVVIVGGGITGITTAYLLQKRGKKVVILEADRLFNGTTGHTTAKITAQHGLIYDEFIQHFGEDKAKQYYDAQMEAKTFIKNTVQDLSIDCDFQEHDAYIYTNANRYLAKLEREMRAYEKLQINGSLIDSMPLQVPIKKAIVMKGQAQFHPIAYLMKLVQDFIDRGGLIFEHTVATDVDKGEHRTVLTRDGHKVTCDYVVESSHFPFFDRGFYFSRMYADRSYVLGLKVKEPYPGGMYLSAEDPPRSIRHASYQGEDLWLISGETHKTGQGMDTDYHYEALESFSREMFNVTDISYRWSAQDLVTLDRMPYIGPATSNDPHILVATGFRKWGMTNGTIAAHVITDLIIGQVNAYQKLFAPQRFVADPSLRKFFSYNVDVAKHLIDGKTEKGSRTPESLQKDEGDVVNVNGKRAGGYRDTDGALHLVDTTCTHMGCEVSWNHGDRTWDCPCHGSRFSYDGEVVEGPAKKPLKKIDHTLEHHHHHH” as the sequence, how does the “soluble on expression in E. coli” value read?
Its value is “soluble”.

Which “soluble on expression in E. coli” value does the source give for “MSERVCAVIVTYNRKALLRECLKAVLSQTRPPDHVLVVDNASTDGTPEMLQEEFPQVEVLRLPENQGGAGGFHEGMKRAYEQGVDWLWLMDDDTIPKAKALEALLEAARLPLDPRPRVLASRQLLPNGLPHPTTAFVNPTDPRHPFLWLRLRPRYRPIRWALFTSVLLHRSLVEEHGLPHKAFFIWEDDLEYTARALRRGLGLQVRDSEVIHKSASKPYISATTGENRLFYGVRNRIWVLRSPAFGPLGKAFLALQLLFGLLTYLAFHPSQKSLQEIGRALRAGLTTSPCLEHHHHHH” here?
Its value is “not soluble”.

With “MSEVDAQEEFHDAPEEAVIEIQKDFVAEIEQDNSNAQLVEEGDDQLVTAEADDEKSAQQVDEDRTEDQVPDITGTEYVDPMTTSMDGIEDLPANDEAQFEDTILEEDELPDQLESAENQEPRSELVSSGVEEEIIEEEDIEEIEESDYVEESAPADEPAPEEEKPQEEAPAEEPAPAEEAPQEEVPAEEPVAEETAPAEEAAVEEPVVEEAAPVEEAPEAEETAPAEEPLIEVAVEEAPAEEPVAEEAEPEAEKQEFELQAPPEGKRPRTPNDLDNPTADEEPAAELEADAGSEVPPTPKTAASEKQSVPPTPKSAAPSEVPPTPKSAAPSEVPPTPKSAAPSEVPLTPKSAAQSSVPPTPKSAVPSEAPPTPRSAAPSDVPPTPKSNGHIANGSIPGTPSVAQESAKATPAATPAATATPAATATPAATGTPKADTAFNFEETPATPRSSVPATPTESNLTTPAPKTPKTPKTPRTPRTPKTPRTPKTPAVVEPEPEPVAEEPEPVAEPEPEPEPVAEAEPEAEPAVEEEPAEEPEPAADETATEPTAEEAEPEAVEESIEKTEVVEEESAPPAARQSSPSPPPARRRPQSPSPERQRTSRHADRDITSYDEDSYRAVPPPRMPTATSFSSWSPPDKQSYTPISPFVSTANKYRNEYTSGSSYRPTNMYTSHFDDIVATGAFSSALYSTNRLIERSRSRTRERKQAMRSQRSASNYYRYSSQAPAPLRAREYSTPPTREISRAPSRNTSFVSFLDYSSAKQGELSRANSRTSIYGDSLSRSCSRANVDAYLGGGRLSRVDSYVRDIHTPYEYEVPSTYDRYRSSSRGPSYSTINGYTAYISSPSYVETESTRRMKRYQRDTSPAMVRSMYEGRIGQLERSLSREVIQKDRVCLWRLGNVVYGGLYRKKYDADLEKAVQYYSSCAKKRRF” as the sequence, how does the “soluble on expression in E. coli” value read?
Its value is “not soluble”.

For “MSEVQQLPIRAVGEYVILVSEPAQAGDEEVTESGLIIGKRVQGEVPELCVVHSVGPDVPEGFCEVGDLTSLPVGQIRNVPHPFVALGLKQPKEIKQKFVTCHYKAIPCLYK”, which “soluble on expression in E. coli” value is on record?
The value was “soluble”.

For “MSFALGQRWISDTESDLGLGTVVALDARTVTLMFAASEENRVYARSDAPVTRVIFNVGDVVDSQQGWSLQVEQVVEDQGVYTYLGTRVDTEESGVALREIFLSNQIRFNKPQDKLFAGQIDRMDNFVLRY”, which “soluble on expression in E. coli” value is on record?
The value was “not soluble”.
